Test results from the nanobody polyreactivity screen of Harvey et al. (2022).

Test: yeast display, Sf9 membrane polyspecificity reagent, FACS + sequencing; frameworks hold sequencing errors
Procedure, shortened: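 In a synthetic yeast display library (Saccharomyces cerevisiae BJ5465), nanobody expression was induced with galactose for 36–48 hours. FACS gates were set low and high (top ~1%) using anti-HA fluorescence for expression and streptavidin fluorescence for binding of the Sf9 membrane reagent. Each polyreactivity label is drawn from the gate of origin.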

Question: For “QVQLVESGGGLVQAGGSLRLSCAASGYISWAYVMGWYIQAPGKERELVAAISSGTSTYYADSVKGRFTISRDNAKNTVYLQMNSLKPEDTAVYYCAAYYYSYPTNGGYGYWGQGTQVTVSS”, which “polyreactivity (PSR sort gate)” value is on record?
Answer: The value was “low polyreactivity”.

Question: Which “polyreactivity (PSR sort gate)” value does the source give for “QVQLVESGGGLVQAGGSLRLSCAASGYIVLVYAMGWYRQAPGKERELFASITRGTRTYYADSVKGRFTISRDNAKNTVYLQMNSLKPEDTAVYYCAAEHSGYPVAFYITGYGYDYWGQGTQVTVSS” here?
Answer: The value was “low polyreactivity”.

Question: For “QVQLVESGGGLVQAGGSLRLSCAASGYIYAYYAMGWYRQAPGKERELVAAITGRGDTTYYADSVKGRFTISRDNAKNTVYLQMNSLIPEDTAVYYCNAEKPTYYYVPGKYDVDYWGQGTQVTVSS”, which “polyreactivity (PSR sort gate)” value is on record?
Answer: The value was “low polyreactivity”.

Question: For “QVQLVESGGGLVQAGGSLRLSCAASGYIYDYNAMGWYRQAPGKERELVAAITFRDGSTYADSVKGRFTISRDNGKNTVYLQMNSLKPEDTAVYYCNRRSQVHSHSKHDDWGQGTQVTVSS”, which “polyreactivity (PSR sort gate)” value is on record?
Answer: Its value is “low polyreactivity”.

Question: Which “polyreactivity (PSR sort gate)” value does the source give for “QVQLVESGGGLVQAGGSLRLSCAASGYIYGVYAMGWYRQAPGKERELVAAISYGVGSTYYADSVKGRFTISRDNAKNTVYLQMNSLKPEDTAVYYCAAEDTQVRWSPVRPLEYYCGQGTQVTVSS” here?
Answer: Its value is “low polyreactivity”.

Question: With “QVQLVESGGGLVQAGGSLRLSCAASGYPFGKYAMGWYRQAPGKERELVASIRSGGSTNYADSVKGRFTISRDNAKNTVYVQMNCLKPEDTAVYYCNTRYRYQYGYDYWWQGTQVTVSS” as the sequence, how does the “polyreactivity (PSR sort gate)” value read?
Answer: Its value is “high polyreactivity”.

Question: Which “polyreactivity (PSR sort gate)” value does the source give for “QVQLVESGGGLVQAGGSLRLSCAASGYSFYKYAMGWYRQAPGKERELVAAISYSGGSTYYADSVKGRFTISRDNAKNTVYLQMNSLKPEDTAVYYCAAVGATKGLRYGYWGQGTQVTVSS” here?
Answer: The value was “low polyreactivity”.

Question: For “QVQLVESGGGLVQAGGSLRLSCAASGYTFAGNAMGWYRQAPGKERELVAVITYSGGSTYYADSVKGRFTISRDNAKNTVYSQMNSLKPEDTAVYYCNAVRDRYASDYWGQGTQVTVSS”, which “polyreactivity (PSR sort gate)” value is on record?
Answer: Its value is “low polyreactivity”.

Question: With “QVQLVESGGGLVQAGGSLRLSCAASGYTFAPYVMGWYRQAPGKERELVARISNNGGSKYYADSVKGRFTISRDNAKNTFYLQMNSLKPEDTAVYYCAADVGLIYFRYYYCGQGTQVTVSS” as the sequence, how does the “polyreactivity (PSR sort gate)” value read?
Answer: Its value is “low polyreactivity”.

Question: For “QVQLVESGGGLVQAGGSLRLSCAASGYTFARYAMGWYRQATGKERELVAANTSGDRTNYADSVKGRFTISRDNAKNTVYLQMNSLKPEDTAVYYCNATLYSYDASDYWGQGTQVTVSS”, which “polyreactivity (PSR sort gate)” value is on record?
Answer: Its value is “low polyreactivity”.

Question: For “QVQLVESGGGLVQAGGSLRLSCAASGYTFASYTMGLYRQAPGKERELVATISRGGGRTYYADSVKGRFTISRDNAKNTVYLQMNSLKPEDTAVYYCATRLYPHQYYYWGQGTQVTVSS”, which “polyreactivity (PSR sort gate)” value is on record?
Answer: Its value is “high polyreactivity”.

Question: With “QVQLVESGGGLVQAGGSLRLSCAASGYTFDLYAMGWYRQAPGKERELVADISSGGSTNYADSVKGRFTISRDNAKNTVYLQMNSLKPEDTAVYYCAVDADRSLFGQYYVSEYGGGYWGQGTQVTVSS” as the sequence, how does the “polyreactivity (PSR sort gate)” value read?
Answer: The value was “low polyreactivity”.

Question: With “QVQLVESGGGLVQAGGSLRLSCAASGYTFDYNAMGSYRQAPGKERELVADITGSGASTSYADSVKGRFTISRDYAKNTVYLQMNSLKPEDTAVYYCNADDSYFYELYGYWGQGTQVTVSS” as the sequence, how does the “polyreactivity (PSR sort gate)” value read?
Answer: The value was “low polyreactivity”.

Question: For “QVQLVESGGGLVQAGGSLRLSCAASGYTFESYTMGWYRQGPGKERDFVAVISSSDTSTSYADSVKGRFTISRDNAKNTVYLQINSLKAEDTAVYYCAAYSSPYYITYYWYNYDYWGQVTQVTVSS”, which “polyreactivity (PSR sort gate)” value is on record?
Answer: Its value is “low polyreactivity”.

Question: For “QVQLVESGGGLVQAGGSLRLSCAASGYTFFFNVMGWYRQAPGKERELVAAISYSGGSTNYADSVKGRFTISRDNAKNTVYLQINSLKPEDTAVYYCNARTVSRNGYQDDYWGQGTQVTVSS”, which “polyreactivity (PSR sort gate)” value is on record?
Answer: The value was “low polyreactivity”.

Question: With “QVQLVESGGGLVQAGGSLRLSCAASGYTFGFYALGWYRQAPGKERELVAAITVSGGSTYYADSVKGRFTISRDNAKNTVYLQMNSLKPEDTAVYYCAAEVWFYSTFLYDYWGQGTQVTVSS” as the sequence, how does the “polyreactivity (PSR sort gate)” value read?
Answer: The value was “high polyreactivity”.

Question: Which “polyreactivity (PSR sort gate)” value does the source give for “QVQLVESGGGLVQAGGSLRLSCAASGYTFGNYAMGWYRQAPGKERELVAGISWSGGSTYYADSVKGRFTISRDNAKNTVYLQMNSLKPEDTAVYYCATRVQGYHNGWYDYWGQGTQVTVSS” here?
Answer: The value was “high polyreactivity”.

Question: Which “polyreactivity (PSR sort gate)” value does the source give for “QVQLVESGGGLVQAGGSLRLSCAASGYTFGSNAMGWYRQAPGKERELVAAISTNGGRTNYADSVKGRFTISRDYAKNSVYLQMYSLIPEDTAVYYCNTRLRVRYYLSGFDYWGQGTQVTVSS” here?
Answer: Its value is “high polyreactivity”.

Question: With “QVQLVESGGGLVQAGGSLRLSCAASGYTFGWYAMGWYRQAPGKERELVAAITSDGSTYYADSVKGRFTISRDNEKNTVYLQMNSLIPVDTAVYYCAADATFDSDWGQGTQVTVSS” as the sequence, how does the “polyreactivity (PSR sort gate)” value read?
Answer: The value was “low polyreactivity”.

Question: For “QVQLVESGGGLVQAGGSLRLSCAASGYTFGYYTMGWYRQAPGKERELVASIDSGGGTYYADSVKGRFTISRDNAKNTVYLQMNSLKPEDTAVYYCAARSAILKSGYLMDYWGQGTQVTVSS”, which “polyreactivity (PSR sort gate)” value is on record?
Answer: The value was “low polyreactivity”.

Question: Which “polyreactivity (PSR sort gate)” value does the source give for “QVQLVESGGGLVQAGGSLRLSCAASGYTFGYYTMGWYRQAPRKERELVASIDSGGGTNYADSVKGRFTISRDNAKNTVYLQMNSLKPEDTAVYYCAAESPLYWVDDFESGWRYYYWGQGTQVTVSS” here?
Answer: The value was “low polyreactivity”.

Question: With “QVQLVESGGGLVQAGGSLRLSCAASGYTFHGNAMGWYRQAPGKERELVAAISRNGGRTYYADSVKGRFTISRDNAKNTVYLQMHSLKPEDTAVYYCNASKFYGVRFKYDYWGQGTQVTVSS” as the sequence, how does the “polyreactivity (PSR sort gate)” value read?
Answer: Its value is “high polyreactivity”.

Question: For “QVQLVESGGGLVQAGGSLRLSCAASGYTFIDNAMGWYRQAPGRERELVAAISDSAGDTYYADSVKGRFTISRDNAKNTVYLQMNSLKPEDTSVYYCAARGYLRGEQLYVFIRYDYWGHGTQVTVSS”, which “polyreactivity (PSR sort gate)” value is on record?
Answer: Its value is “low polyreactivity”.

Question: Which “polyreactivity (PSR sort gate)” value does the source give for “QVQLVESGGGLVQAGGSLRLSCAASGYTFIDYAMGWYRQAPGKETELVAAITRGGRTNYADSVKGRFTISRDNAKNTVYLQMNSLKPEDTAVYYCAAALRRRRADFDYWGQGTQVTVSS” here?
Answer: The value was “high polyreactivity”.

Question: Which “polyreactivity (PSR sort gate)” value does the source give for “QVQLVESGGGLVQAGGSLRLSCAASGYTFIINAMGWYRQAPGKERELVASISGGGTYYADSVKGRFTISRDNAKNTVYLEMNSLKREDTAVYYCNATRRRKYYKYGGDYWGQGTQVTVSS” here?
Answer: The value was “high polyreactivity”.

Question: Which “polyreactivity (PSR sort gate)” value does the source give for “QVQLVESGGGLVQAGGSLRLSCAASGYTFIVNAMGWYRQAPGKERELVAGISYRGGRTFYADSVKGRFTISRDNAKNTVYLQMTSLKPEDTAVYYCAARKTGIPFYNYDYWGQGTQVTVSS” here?
Answer: Its value is “low polyreactivity”.

Question: With “QVQLVESGGGLVQAGGSLRLSCAASGYTFLISAMGWYRQAPGKERELVAVISSGGSTSYADSVKGRFTISRDNAKNTVYLQMNSLKPEDSAVYYCAAALAGGRRGGDYWGQGTQVTVSS” as the sequence, how does the “polyreactivity (PSR sort gate)” value read?
Answer: The value was “low polyreactivity”.

Question: Which “polyreactivity (PSR sort gate)” value does the source give for “QVQLVESGGGLVQAGGSLRLSCAASGYTFLPNAMGWYRQAPGKESEFVAAISYSGGRTYYADSVKGRFTISRDNAKNTVYLLMNSLKPEDTAVYYCARDRRYWAVLSDYWGQGTQVTVSS” here?
Answer: The value was “low polyreactivity”.

Question: Which “polyreactivity (PSR sort gate)” value does the source give for “QVQLVESGGGLVQAGGSLRLSCAASGYTFLYYAMGWYRQAPGKEREFVAAISRSGGSTYYADSVKGRFTISRDNAKNTVYLQMNSLKPEDTAVYYCAARFRYQHQRGDYWGQGTQVTVSS” here?
Answer: Its value is “high polyreactivity”.

Question: For “QVQLVESGGGLVQAGGSLRLSCAASGYTFNRNAMGWYRQAPGKERELVASITRRGGYTYYADSVKGRFTISRDNAKNTDYLQMISLKPEDTAVYYCAVESIRTGDYWGQGTQVTVSS”, which “polyreactivity (PSR sort gate)” value is on record?
Answer: Its value is “high polyreactivity”.

Question: With “QVQLVESGGGLVQAGGSLRLSCAASGYTFPKYAMGWYRQAPGKERELVAAITKRGGRTYSADSVKGRFTISRDNAKNTVYLQMNSLKPEDTAVYYCAVDLDGPEYSQVHYDYWGQGTQVTVSS” as the sequence, how does the “polyreactivity (PSR sort gate)” value read?
Answer: The value was “high polyreactivity”.

Question: With “QVQLVESGGGLVQAGGSLRLSCAASGYTFPLYAMGWYRQAPGTERELVADINIGGASTYYADSVKGRFTISRDNAKNTVYLQMNSLKPEDTAVYYCAADYTVRVVATYDYWGQGTQVTVSS” as the sequence, how does the “polyreactivity (PSR sort gate)” value read?
Answer: The value was “low polyreactivity”.

Question: With “QVQLVESGGGLVQAGGSLRLSCAASGYTFPRYTMGRYRQAPGKERELVAVIRRSGGTHYADSVKGRFTISRDNAKNTVYLLMYSLNPVDIAVYYCAVVSLLQNIPYGFWGQGTQVTVSS” as the sequence, how does the “polyreactivity (PSR sort gate)” value read?
Answer: The value was “high polyreactivity”.

Question: Which “polyreactivity (PSR sort gate)” value does the source give for “QVQLVESGGGLVQAGGSLRLSCAASGYTFPSYAMGWYRQAPGKERELVAVITIGGTYYADSVKGRFTISRDNAKNTVYLQMNSLKPEDTAVYYCAADWAWDYYRGFDYWGQGTQVTVSS” here?
Answer: The value was “low polyreactivity”.

Question: For “QVQLVESGGGLVQAGGSLRLSCAASGYTFRAYVMGRYRQAPGKEREMVAGITRRGGTTYYADSVKGRFTISRDYAKNTVYLQMNSLKPEDTAVYYCTAVFRSGSIPYVSWGQGTQVTVSS”, which “polyreactivity (PSR sort gate)” value is on record?
Answer: The value was “high polyreactivity”.

Question: Which “polyreactivity (PSR sort gate)” value does the source give for “QVQLVESGGGLVQAGGSLRLSCAASGYTFRFNAMGWYRQAPGKEREFVAAIDFGGAGTYYADSVKGRFTISRDNAKNTVYLQMNSLKPEDTAVYYCNARDGVTTEFDYWGQGTQVTVSS” here?
Answer: The value was “low polyreactivity”.

Question: With “QVQLVESGGGLVQAGGSLRLSCAASGYTFRPYAMGSYIQAPGKERELVAAISSTGGRTYYADSVKGRFTISRDIAKNTVYVQMNSLKPEYTAVYYCAVLKVYRSSFDYCGQGTQVTVSS” as the sequence, how does the “polyreactivity (PSR sort gate)” value read?
Answer: Its value is “high polyreactivity”.

Question: For “QVQLVESGGGLVQAGGSLRLSCAASGYTFRYNALGWYRQAPGKERELVAAISSSGRTYYADSVKGRFTSSRDNAKNTVDLQMNSLKPDATAVYYCNAGPYAGARYRWGYDYWGQGTQVTVSS”, which “polyreactivity (PSR sort gate)” value is on record?
Answer: The value was “high polyreactivity”.

Question: With “QVQLVESGGGLVQAGGSLRLSCAASGYTFRYNAMGWYRQAPGKERELVATISRGGNTNYADSVKGRFTISRDNAKNPVYLQMISLKAEDTAVYYCAKVWRTFPYYSWGQGTQVTVSS” as the sequence, how does the “polyreactivity (PSR sort gate)” value read?
Answer: Its value is “high polyreactivity”.

Question: For “QVQLVESGGGLVQAGGSLRLSCAASGYTFRYYAMGWYRQAPVKERELVARITGRAGSTYYADSVKGRFTISRDNAKNTVYLQMNSLKPEDTAVYYCAASIREGFYWGQGTQVTVSS”, which “polyreactivity (PSR sort gate)” value is on record?
Answer: The value was “high polyreactivity”.

Question: With “QVQLVESGGGLVQAGGSLRLSCAASGYTFRYYVMGWYRQAPGKERELVAAISFSGGSTYYADSVKGRFTISRDTAKNSGYLQMKSLKPEDTAVYYCAARPGGGKYRGYYYWGQGTQVTVSS” as the sequence, how does the “polyreactivity (PSR sort gate)” value read?
Answer: The value was “high polyreactivity”.
